In patent publication US20140348865A1, “[…] ON AN HIV-1 V1V2 SITE-OF-VULNERABILITY” (The United States of America, as represented by the …, priority 2011, published 2014):

Columns and labels:
[1] = biological target: Env of HIV-1 strain 0439 (pseudovirus) (HIV-1)
[2] = biological target: Env of HIV-1 strain 398 (pseudovirus) (HIV-1)
[3] = biological target: Env of HIV-1 strain CNE56 (pseudovirus) (HIV-1)
[4] = biological target: Env of HIV-1 strain QH209 (pseudovirus) (HIV-1)
[5] = biological target: Env of HIV-1 strain 6405 (pseudovirus) (HIV-1)
[6] = biological target: Env of HIV-1 strain A03349M1 (pseudovirus) (HIV-1)
[7] = biological target: 1FD6 CAP45 scaffold N143D/N147D/N192D; assay: ELISA on His-captured supernatant

monoclonal antibody PG16
neutralization IC50 (96ZM651.02): > 50 µg/mL
neutralization IC50 (ZM176.66): 0.002 µg/mL
neutralization IC80 (0260.v5.c36 (HIV-1)): > 50 µg/mL
neutralization IC80 (0330.v4.c3 (HIV-1)): 0.027 µg/mL
neutralization IC80 (0815_V3_C3 (HIV-1)): > 50 µg/mL
neutralization IC80 (3301_V1_C24 (HIV-1)): 0.397 µg/mL
neutralization IC80 (3415.v1.c1 (HIV-1)): 0.342 µg/mL
neutralization IC80 (3468_V1_C12 (HIV-1)): > 50 µg/mL
neutralization IC80 (3589_V1_C4 (HIV-1)): 37.8 µg/mL
neutralization IC80 (3718.v3.c11 (HIV-1)): 0.102 µg/mL
neutralization IC80 (6095_V1_C10 (HIV-1)): 0.443 µg/mL
neutralization IC80 (620345.c1 (HIV-1)): > 50 µg/mL
neutralization IC80 (6540.v4.c1 (HIV-1)): 0.154 µg/mL
neutralization IC80 (6545_V4_C1 (HIV-1)): 0.562 µg/mL
neutralization IC80 (BB201.B42 (HIV-1)): 0.008 µg/mL
neutralization IC80 (BB539.2B13 (HIV-1)): 0.062 µg/mL
neutralization IC80 (BI369.9A (HIV-1)): 0.037 µg/mL
neutralization IC80 (BS208.B1 (HIV-1)): 0.012 µg/mL
neutralization IC80 (C1080.c3 (HIV-1)): 0.004 µg/mL
neutralization IC80 (C2101.c1 (HIV-1)): 0.069 µg/mL
neutralization IC80 (C3347.c11 (HIV-1)): 0.031 µg/mL
neutralization IC80 (C4118.09 (HIV-1)): 0.24 µg/mL
neutralization IC80 (CNE3 (HIV-1)): > 50 µg/mL
neutralization IC80 (CNE5 (HIV-1)): < 0.023 µg/mL
neutralization IC80 (CNE55 (HIV-1)): > 50 µg/mL
neutralization IC80 (CNE59 (HIV-1)): > 50 µg/mL
neutralization IC80 [1]: > 50 µg/mL
neutralization IC80 [2]: > 50 µg/mL
neutralization IC80 [3]: > 50 µg/mL
neutralization IC80 [4]: > 50 µg/mL
neutralization IC80 (KER2008.12 (HIV-1)): 0.046 µg/mL
neutralization IC80 (KER2018.11 (HIV-1)): 0.002 µg/mL
neutralization IC80 (KNH1209.18 (HIV-1)): > 50 µg/mL
neutralization IC80 (M02138 (HIV-1)): 0.81 µg/mL
neutralization IC80 (MB201.A1 (HIV-1)): 0.019 µg/mL
neutralization IC80 (MB539.2B7 (HIV-1)): 0.205 µg/mL
neutralization IC80 (MI369.A5 (HIV-1)): 0.082 µg/mL
neutralization IC80 (MS208.A1 (HIV-1)): 31.8 µg/mL
neutralization IC80 (Q168.a2 (HIV-1)): 0.106 µg/mL
neutralization IC80 (Q23.17 (HIV-1)): 0.004 µg/mL
neutralization IC80 (Q259.17 (HIV-1)): 0.717 µg/mL
neutralization IC80 (Q461.e2 (HIV-1)): > 50 µg/mL
neutralization IC80 (Q769.d22 (HIV-1)): 11 µg/mL
neutralization IC80 (Q769.h5 (HIV-1)): 0.02 µg/mL
neutralization IC80 (Q842.d12 (HIV-1)): 0.006 µg/mL
neutralization IC80 (R1166.c1 (HIV-1)): 12.5 µg/mL
neutralization IC80 (R2184.c4 (HIV-1)): > 50 µg/mL
neutralization IC80 (R3265.c6 (HIV-1)): 0.691 µg/mL
neutralization IC80 (RW020.2 (HIV-1)): 3.51 µg/mL
neutralization IC80 (TH966.8 (HIV-1)): 0.03 µg/mL
neutralization IC80 (TH976.17 (HIV-1)): > 50 µg/mL
neutralization IC80 (UG037.8 (HIV-1)): 0.004 µg/mL
neutralization IC80 (231965.c1 (HIV-1)): > 50 µg/mL
neutralization IC80 (3016.v5.c45 (HIV-1)): > 50 µg/mL
neutralization IC80 [5]: > 50 µg/mL
neutralization IC80 [6]: > 50 µg/mL
neutralization IC80 (SIVmac251.30.SG3 (SIV)): > 50 µg/mL
neutralization IC80 (SVA.MLV): > 50 µg/mL
neutralization IC80 (UG021.16 (HIV-1)): > 50 µg/mL
neutralization IC80 (UG024.2 (HIV-1)): > 50 µg/mL
neutralization IC80 (ZM249.1 (HIV-1)): 9.23 µg/mL
neutralization IC80 (ZM55.28a (HIV-1)): > 50 µg/mL
EC50 [7]: 15.1 µg/mL

monoclonal antibody PG9
neutralization IC50 (96ZM651.02): > 50 µg/mL
neutralization IC50 (ZM176.66): 0.007 µg/mL
neutralization IC80 (0260.v5.c36 (HIV-1)): 22.8 µg/mL
neutralization IC80 (0330.v4.c3 (HIV-1)): 0.083 µg/mL
neutralization IC80 (0815_V3_C3 (HIV-1)): > 50 µg/mL
neutralization IC80 (3301_V1_C24 (HIV-1)): 1.51 µg/mL
neutralization IC80 (3415.v1.c1 (HIV-1)): 0.77 µg/mL
neutralization IC80 (3468_V1_C12 (HIV-1)): > 50 µg/mL
neutralization IC80 (3589_V1_C4 (HIV-1)): 0.102 µg/mL
neutralization IC80 (3718.v3.c11 (HIV-1)): 0.202 µg/mL
neutralization IC80 (6095_V1_C10 (HIV-1)): 2.25 µg/mL
neutralization IC80 (620345.c1 (HIV-1)): > 50 µg/mL
neutralization IC80 (6540.v4.c1 (HIV-1)): 0.213 µg/mL
neutralization IC80 (6545_V4_C1 (HIV-1)): 0.315 µg/mL
neutralization IC80 (BB201.B42 (HIV-1)): 0.046 µg/mL
neutralization IC80 (BB539.2B13 (HIV-1)): 0.422 µg/mL
neutralization IC80 (BI369.9A (HIV-1)): 0.151 µg/mL
neutralization IC80 (BS208.B1 (HIV-1)): 0.098 µg/mL
neutralization IC80 (C1080.c3 (HIV-1)): 0.011 µg/mL
neutralization IC80 (C2101.c1 (HIV-1)): 0.289 µg/mL
neutralization IC80 (C3347.c11 (HIV-1)): 0.168 µg/mL
neutralization IC80 (C4118.09 (HIV-1)): 0.205 µg/mL
neutralization IC80 (CNE3 (HIV-1)): 1.12 µg/mL
neutralization IC80 (CNE5 (HIV-1)): < 0.023 µg/mL
neutralization IC80 (CNE55 (HIV-1)): 1.32 µg/mL
neutralization IC80 (CNE59 (HIV-1)): 0.465 µg/mL
neutralization IC80 [1]: > 50 µg/mL
neutralization IC80 [2]: > 50 µg/mL
neutralization IC80 [3]: > 50 µg/mL
neutralization IC80 [4]: > 50 µg/mL
neutralization IC80 (KER2008.12 (HIV-1)): 0.085 µg/mL
neutralization IC80 (KER2018.11 (HIV-1)): 0.004 µg/mL
neutralization IC80 (KNH1209.18 (HIV-1)): > 50 µg/mL
neutralization IC80 (M02138 (HIV-1)): 1.36 µg/mL
neutralization IC80 (MB201.A1 (HIV-1)): 0.193 µg/mL
neutralization IC80 (MB539.2B7 (HIV-1)): 0.383 µg/mL
neutralization IC80 (MI369.A5 (HIV-1)): 0.364 µg/mL
neutralization IC80 (MS208.A1 (HIV-1)): 0.589 µg/mL
neutralization IC80 (Q168.a2 (HIV-1)): 0.342 µg/mL
neutralization IC80 (Q23.17 (HIV-1)): 0.02 µg/mL
neutralization IC80 (Q259.17 (HIV-1)): 0.229 µg/mL
neutralization IC80 (Q461.e2 (HIV-1)): 29.9 µg/mL
neutralization IC80 (Q769.d22 (HIV-1)): 0.033 µg/mL
neutralization IC80 (Q769.h5 (HIV-1)): 0.007 µg/mL
neutralization IC80 (Q842.d12 (HIV-1)): 0.021 µg/mL
neutralization IC80 (R1166.c1 (HIV-1)): 9.24 µg/mL
neutralization IC80 (R2184.c4 (HIV-1)): 1.75 µg/mL
neutralization IC80 (R3265.c6 (HIV-1)): 9.8 µg/mL
neutralization IC80 (RW020.2 (HIV-1)): 0.622 µg/mL
neutralization IC80 (TH966.8 (HIV-1)): 0.183 µg/mL
neutralization IC80 (TH976.17 (HIV-1)): > 50 µg/mL
neutralization IC80 (UG037.8 (HIV-1)): 0.085 µg/mL
neutralization IC80 (231965.c1 (HIV-1)): > 50 µg/mL
neutralization IC80 (3016.v5.c45 (HIV-1)): > 50 µg/mL
neutralization IC80 [5]: > 50 µg/mL
neutralization IC80 [6]: > 50 µg/mL
neutralization IC80 (SIVmac251.30.SG3 (SIV)): > 50 µg/mL
neutralization IC80 (SVA.MLV): > 50 µg/mL
neutralization IC80 (UG021.16 (HIV-1)): > 50 µg/mL
neutralization IC80 (UG024.2 (HIV-1)): > 50 µg/mL
neutralization IC80 (ZM249.1 (HIV-1)): 0.408 µg/mL
neutralization IC80 (ZM55.28a (HIV-1)): 11.5 µg/mL
EC50 [7]: 0.1 µg/mL
